± gives the standard error. Variants at the floor of the assay were thinned out.
B1: glmS ribozyme (parent)
chain: AUAAAAGCGCCAGAACUACAGAAAUGUAGUUGACGAGGAGGAGGUUUAUCGAAUUUUCGGCGGAUGCCUCCAAA

Columns and labels:
Settings in all cases: with glucosamine-6-phosphate
glucosamine-6-phosphate [1] = variants of: B1; assay: self-cleavage kobs at 640 uM GlcN6P; higher = faster cleavage; RNA array
How it was run: (§1)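 Barcoded ribozyme variants were transcribed in situ on sequenced MiSeq chips by E. coli RNA polymerase. At 37 °C, a hybridised Cy3 probe tracked them while glucosamine-6-phosphate (40 μM to 10 mM) in HEPES/KCl/Mg(OAc)2 buffer flowed in and tiles were imaged over ~14 h. Per-tile medians of signals normalised to baseline and to non-cleaving reference variants were fit to one- or two-exponential decays, giving kobs. kcat and KM came from weighted Michaelis–Menten fits across concentrations.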

glucosamine-6-phosphate [2] = variants of: B1; assay: self-cleavage kobs at 2500 uM GlcN6P; higher = faster cleavage; RNA array
How it was run: as §1

glucosamine-6-phosphate [3] = variants of: B1; assay: self-cleavage kobs at 10000 uM GlcN6P; higher = faster cleavage; RNA array
How it was run: as §1

| Variant | self-cleavage kobs at 640 uM GlcN6P (glucosamine-6-phosphate [1]) [s⁻¹] | self-cleavage kobs at 2500 uM GlcN6P (glucosamine-6-phosphate [2]) [s⁻¹] | self-cleavage kobs at 10000 uM GlcN6P (glucosamine-6-phosphate [3]) [s⁻¹] |
| --- | --- | --- | --- |
| A14U U31A G32U C67U | 5.86e-05 ± 2.4e-05 | 0.000276 ± 7.5e-05 |  |
| C16A A53G G62A | < 1e-05 |  |  |
| A39U A52C A53G A64U | < 1e-05 | < 1e-05 |  |
| C8U G40U G59U C68U | < 1e-05 |  |  |
| A6U C8A C11U C50G | 0.000402 ± 0.00018 | 0.000125 ± 4.7e-05 |  |
| C34U C58A G59U | < 1e-05 | < 1e-05 |  |
| G29U A53G U57C C67G U69A | 0.000459 ± 0.00022 |  |  |
| A52U C70G C71A | 8.24e-05 ± 2.8e-05 |  |  |
| G7U G9U G43U | < 1e-05 | < 1e-05 |  |
| A14C G38U G44A G63U C67U | < 1e-05 |  |  |
| C58A C70A C71A | 8.13e-05 ± 2.5e-05 | 0.000492 ± 0.00012 |  |
| G9U C70G | < 1e-05 | < 1e-05 | < 1e-05 |
| G13U U56A C71U | 0.000105 ± 1.6e-05 | 8.21e-05 ± 2.1e-05 |  |
| G32C G63U U69G | 0.00126 ± 0.00029 |  |  |
| G7U C68G | 0.000534 ± 0.00015 |  |  |
| C8U U31C U69A | 0.00179 ± 0.00081 |  |  |
| A12U A53G U56C | 0.00708 ± 0.0025 | 0.0149 ± 0.0066 |  |
| C34G U45C G59U G62A G66A | < 1e-05 |  |  |
| A6C U54G C70U | 6.45e-05 ± 2.2e-05 |  |  |
| C34U G40U A53U C58U G60U C61A C68A | < 1e-05 |  |  |
| A12U C16A A53C | 0.000148 ± 3.3e-05 | 0.000358 ± 7.9e-05 |  |
| G32A G37C C61U C67U | < 1e-05 |  |  |

| Variant | self-cleavage kobs at 640 uM GlcN6P (glucosamine-6-phosphate [1]) [s⁻¹] | self-cleavage kobs at 2500 uM GlcN6P (glucosamine-6-phosphate [2]) [s⁻¹] | self-cleavage kobs at 10000 uM GlcN6P (glucosamine-6-phosphate [3]) [s⁻¹] |
| --- | --- | --- | --- |
| A6C C10A G32A G51A A52G A53G G59C G63U C68A | 0.000154 ± 5.6e-05 |  |  |
| C11U A15C G29C G32U C50G | 0.000512 ± 0.00014 | 0.000149 ± 3.9e-05 |  |
| A15C U56A U65G | 5.97e-05 ± 2.3e-05 | 0.000177 ± 6.3e-05 | 0.000562 ± 0.00012 |
| C10G G38A U47C A52C | < 1e-05 |  |  |
| A6U G35A G43U | < 1e-05 | < 1e-05 |  |
| C11A A36G C50A A64C C68A | < 1e-05 |  |  |
| G29U G40C A52G C58A C68A | < 1e-05 | < 1e-05 |  |
| G13C U30A G41U G63A A64C | < 1e-05 | < 1e-05 |  |
| C10U G37C A39G G41C A48U G62U U65A | < 1e-05 | < 1e-05 |  |
| G9U A12C G51C C67U | < 1e-05 | < 1e-05 |  |
| A15G G29C G38A U47C C71A | < 1e-05 | < 1e-05 |  |
| A6C C10A A15G C16G G63A | < 1e-05 | < 1e-05 | < 1e-05 |
| A12C G13A A14G C16A U17C A18U A39G C50U A52G | < 1e-05 |  |  |
| C8A C50G C61A U69G | 7.27e-05 ± 2.2e-05 | 6.55e-05 ± 2.7e-05 |  |
| C10G A14C G44C G51C | < 1e-05 |  |  |
| C11U C16U A64U C71G | 0.0021 ± 0.00087 |  |  |
| G13U G62C | < 1e-05 | < 1e-05 |  |
| U31C C67G C68G | 5.49e-05 ± 1.6e-05 |  |  |
| U46C C71G | 7.56e-05 ± 1.5e-05 | 0.000331 ± 5e-05 | 0.000149 ± 6.2e-05 |
| A12G G26U G41U U47C C70G | 0.000117 ± 5.2e-05 |  |  |
| G29A G38U C50G | 0.00061 ± 0.00027 |  |  |
| A6C G13U C50G G62A C68U | 0.000276 ± 0.0001 | 0.000212 ± 9.7e-05 |  |

| Variant | self-cleavage kobs at 640 uM GlcN6P (glucosamine-6-phosphate [1]) [s⁻¹] | self-cleavage kobs at 2500 uM GlcN6P (glucosamine-6-phosphate [2]) [s⁻¹] | self-cleavage kobs at 10000 uM GlcN6P (glucosamine-6-phosphate [3]) [s⁻¹] |
| --- | --- | --- | --- |
| C10U U46A U56C | < 1e-05 | < 1e-05 |  |
| U30C G35A C71A | < 1e-05 |  |  |
| C8G C11A A39C | < 1e-05 |  |  |
| U57C C67U C68A | 8.67e-05 ± 4e-05 |  |  |
| G44U U49C G62U | < 1e-05 | < 1e-05 |  |
| A14U U17C A18U C19A G59U G66A | < 1e-05 | < 1e-05 |  |
| A33G G59A | < 1e-05 |  | < 1e-05 |
| U31C A42G C70U | 0.000788 ± 0.00029 |  |  |
| G40C G51C G63C C71A | < 1e-05 | < 1e-05 |  |
| C16U U47A G62U | < 1e-05 |  |  |
| G9A C10G C58U | < 1e-05 | < 1e-05 |  |
| G21U U45C C68U | 0.000572 ± 0.0001 | 0.000312 ± 8e-05 | 0.00114 ± 0.00043 |
| G38U C50U C58A U69A | 0.000295 ± 9.9e-05 | 0.000466 ± 0.00018 |  |
| A14G U31G C67G | 6.87e-05 ± 2.7e-05 | 5.23e-05 ± 1.9e-05 |  |
| A33G A48C C61A C67G | < 1e-05 |  | < 1e-05 |
| U47G G62U | < 1e-05 |  |  |
| U69G C71A | 6.61e-05 ± 2.3e-05 |  |  |
| G32U G35U A42U U56A U57A G62U | < 1e-05 | < 1e-05 |  |
| A36G A42G U56G | < 1e-05 |  |  |
| A36C U57C C67U | < 1e-05 | < 1e-05 |  |
